US20110143993A1 (BRIGHAM AND WOMEN S HOSPITAL, published 2011)
No end group written: not given here.

B1: phage clone C-11 (KLWVLPK displayed on pIII of M13 phage) (peptide)
peptide: KLWVLPK
notes: Whole phage particle displaying the heptamer; tested as phage (ELISA with anti-M13 antibody, titer counts); also called Phage C-11; not shown: minor coat protein pIII of M13 filamentous phage (Ph.D.-7 library, New England Biolabs)
B2: phage clone C-10 (KIWKLPQ displayed on pIII of M13 phage) (peptide)
peptide: KIWKLPQ
notes: Whole phage particle displaying the heptamer; tested as phage, detected with anti-M13 antibody; not shown: minor coat protein pIII of M13 filamentous phage (Ph.D.-7 library, New England Biolabs)
B3: phage clone A-9 (KIFVWPY displayed on pIII of M13 phage) (peptide)
peptide: KIFVWPY
modifications: not fully specified
notes: as for B2
B4: phage clone A-8 (KVWSLPQ displayed on pIII of M13 phage) (peptide)
peptide: KVWSLPQ
notes: as for B2
B5: phage clone C-8 (HWGSLRA displayed on pIII of M13 phage) (peptide)
peptide: HWGSLRA
notes: 100% of the round 5 clones; not shown: minor coat protein pIII of M13 filamentous phage (Ph.D.-7 library, New England Biolabs)

What follows are binders tested against T1, bovine serum albumin (bovine, UniProt P02769 25-607) (assay: phage ELISA on BSA-coated wells, anti-M13 HRP/ABTS).
T1 construct: also called BSA
Protocol: The clones were tested against the random library (R0) for binding to Matrigel (lighter shaded bars) or BSA (black bars). Bound phages were labeled with peroxidase-conjugated anti-M13 monoclonal antibodies (mAbs), and ABTS absorbance at 405 nm was read against a reference wavelength of 490 nm (mean±s.d., n=3). (**) P<0.01; (***) P<0.001, all compared with R0 (one-way analysis of variance with Tukey post-hoc test).
96-well plates were coated with 100 μL 1/50 dilutions of Matrigel in TBS overnight at 4° C., or TBS buffer only. Plates were blocked with 3% BSA/TBS for 2 h at RT and washed three times. 10¹⁰ p.f.u. of each phage clone was added in 0.5% TBST in triplicate to either Matrigel or BSA-coated wells. Bound phage particles were detected with peroxidase-conjugated mouse anti-M13 monoclonal antibodies at 1/5000 dilution (Amersham Pharmacia Biotech, Piscataway, N.J.). After a 1 h incubation, the reaction was developed with 2,2′-azino-bis(3-ethylbenzthiazoline-6-sulphonic acid) (ABTS) (Amersham) and the absorbance was read at 405 nm against a reference wavelength of 490 nm with a SpectraMax Plus 384 Microplate reader (Molecular Devices, Sunnyvale, Calif.).

T1 sequence (P02769 25-607 limits assumed): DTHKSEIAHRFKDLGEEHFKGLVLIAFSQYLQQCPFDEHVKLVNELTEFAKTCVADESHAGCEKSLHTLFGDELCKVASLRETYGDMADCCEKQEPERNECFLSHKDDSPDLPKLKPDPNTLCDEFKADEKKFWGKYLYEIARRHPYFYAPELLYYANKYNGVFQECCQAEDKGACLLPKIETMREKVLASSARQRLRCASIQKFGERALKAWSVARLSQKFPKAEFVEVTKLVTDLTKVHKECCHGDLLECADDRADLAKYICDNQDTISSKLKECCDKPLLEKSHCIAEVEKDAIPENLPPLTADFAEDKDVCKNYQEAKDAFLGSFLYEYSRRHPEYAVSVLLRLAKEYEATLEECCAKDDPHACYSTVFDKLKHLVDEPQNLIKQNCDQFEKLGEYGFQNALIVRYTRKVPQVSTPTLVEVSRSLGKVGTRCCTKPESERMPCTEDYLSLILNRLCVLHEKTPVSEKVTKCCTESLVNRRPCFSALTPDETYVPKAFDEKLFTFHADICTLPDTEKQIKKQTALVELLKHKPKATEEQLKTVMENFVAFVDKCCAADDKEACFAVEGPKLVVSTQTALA

Binder | binding result
B1 | no binding (tested: 10^10 p.f.u. of each phage clone)
B2 | no binding (tested: 10^10 p.f.u. of each phage clone)
B3 | no binding (tested: 10^10 p.f.u. of each phage clone)
B4 | no binding (tested: 10^10 p.f.u. of each phage clone)
B5 | no binding (tested: 10^10 p.f.u. of each phage clone)

These binders were tested against T2, Matrigel growth factor reduced LDEV free (basement membrane extract rich in collagen IV and laminin) (assay: phage titer count of eluted phage, input 10^12/mL p.f.u., against random library R0, n=3).
T2 construct: A mixture coated on plates, not one protein

Binder | fold binding compared to the library (R0), phage titer
B1 | ~300 fold
